From publication PMC8423358 (Immunity, 2021) come the findings set out here.

Changes are numbered by the printed parent chain. Names and notes keep the numbering of the source.

In the experiment the target is DPP9, short isoform (DPP9S), co-expressed with CARD8 for cryo-EM (UniProt Q86TI2-1 1-863). Kind of experiment: cryo-EM structure.
Chain of DPP9, short isoform (DPP9S), co-expressed with CARD8 for cryo-EM (Q86TI2 whole entry, canonical isoform): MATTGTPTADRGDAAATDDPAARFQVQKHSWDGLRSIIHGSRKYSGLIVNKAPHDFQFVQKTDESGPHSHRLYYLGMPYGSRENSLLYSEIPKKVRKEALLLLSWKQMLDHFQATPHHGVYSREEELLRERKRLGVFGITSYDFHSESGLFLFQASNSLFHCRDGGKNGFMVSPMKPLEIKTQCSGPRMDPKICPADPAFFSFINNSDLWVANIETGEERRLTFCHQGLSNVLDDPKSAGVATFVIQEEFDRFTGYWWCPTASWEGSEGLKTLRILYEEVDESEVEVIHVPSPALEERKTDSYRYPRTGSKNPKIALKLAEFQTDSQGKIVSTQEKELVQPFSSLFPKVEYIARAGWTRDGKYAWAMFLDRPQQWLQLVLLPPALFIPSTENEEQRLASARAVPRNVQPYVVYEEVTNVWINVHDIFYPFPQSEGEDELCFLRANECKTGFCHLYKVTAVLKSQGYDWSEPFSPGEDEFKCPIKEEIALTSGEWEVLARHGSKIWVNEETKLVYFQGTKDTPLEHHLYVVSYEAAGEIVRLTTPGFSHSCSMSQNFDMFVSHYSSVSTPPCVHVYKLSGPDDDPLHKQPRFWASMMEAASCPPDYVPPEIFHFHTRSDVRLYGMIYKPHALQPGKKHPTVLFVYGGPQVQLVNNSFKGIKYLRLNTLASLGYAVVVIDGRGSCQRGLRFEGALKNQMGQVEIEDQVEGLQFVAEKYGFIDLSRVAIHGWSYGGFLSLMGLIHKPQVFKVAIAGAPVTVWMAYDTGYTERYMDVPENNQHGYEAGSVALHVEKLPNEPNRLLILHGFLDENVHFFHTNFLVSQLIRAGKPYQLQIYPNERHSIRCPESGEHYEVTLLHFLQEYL

B1: Full-length CARD8 (T60 isoform), molecule A of the CARD8-DPP9 ternary complex (natural protein, human, UniProt Q9Y2G2-5 1-537, looked up)
chain: MEKKECPEKSSSSEEELPRRDSGSSRNIDASKLIRLQGSRKLLVDNSIRELQYTKTGIFFQAEACVTNDTVYRELPCVSETLCDISHFFQEDDETEAEPLLFRAVPECQLSGGDIPSVSEEQESSEGQDSGDICSEENQIVSSYASKVCFEIEEDYKNRQFLGPEGNVDVELIDKSTNRYSVWFPTAGWYLWSATGLGFLVRDEVTVTIAFGSWSQHLALDLQHHEQWLVGGPLFDVTAEPEEAVAEIHLPHFISLQAGEVDVSWFLVAHFKNEGMVLEHPARVEPFYAVLESPSFSLMGILLRIASGTRLSIPITSNTLIYYHPHPEDIKFHLYLVPSDALLTKAIDDEEDRFHGVRLQTSPPMEPLNFGSSYIVSNSANLKVMPKELKLSYRSPGEIQHFSKFYAGQMKEPIQLEITEKRHGTLVWDTEVKPVDLQLVAASAPPPFSGAAFVKENHRQLQARMGDLKGVLDDLQDNEVLTENEKELVEQEKTRQSKNEALLSMVEKKGDLALDVLFRSISERDPYLVSYLRQQNL
On to B1, for which the binding result was “binds”.

B2: CARD8-S297A (autoproteolytic-deficient), full length, for cryo-EM (natural protein, human, UniProt Q9Y2G2-5 1-537, looked up)
chain: B1 chain with S297A
As for B2, the binding result is “binds”.
